Experimental data from PMC5291005, “Listeria monocytogenes 10403S Arginine Repressor ArgR Finely Tunes Arginine Metabolism Regulation under Acidic Conditions” (Frontiers in Microbiology, 2017).
Where “and” joins values, the source holds several entries; their conditions need not be identical. Equal entries are not always repeated.

Biological target: the molecule itself
Assay: cross-linking; purified N-terminal His6-ArgR cross-linked with various amounts of glutaraldehyde (multimers at 0.05%) in 50 mM HEPES pH 8.0, 150 mM KCl, 1 mM L-arginine, with or without 1% beta-mercaptoethanol, room temperature, 2 h; 10% SDS-PAGE, Coomassie staining

B1: Listeria monocytogenes 10403S arginine repressor ArgR (natural protein, UniProt B8DFW1 1-149, looked up)
chain: MNKGHRHIIIRELITSNEIDTQEDLVELLLERDVKVTQATVSRDIKELHLVKVPTQTGGYKYSLPADNSFNPHQKLKRALIDCFIGIDNVQFMIILKVMPGNGNSVGALIDNLDWPEKAGTICGDDTCLIICRSEENAKTLTDRFIDML
notes: ArgR, arginine repressor of the ArgR/AhrC family, Listeria monocytogenes strain 10403S; full-length ORF amplified from the 10403S genome; the his-tagged protein runs at about 23 kDa; also called recombinant ArgR; his-tagged ArgR protein; not shown: His6, N-terminal, kept
  stoichiometry N: 3 and 6
